{"source": "paper doi:10.1101/2023.06.06.543845", "target": "Mycobacterium thermoresistibile NrdI (Mycobacterium thermoresistibile)", "assay": "cryo-EM structure"}
{"substance": "Mycobacterium thermoresistibile NrdF2 (enzyme)", "values": [{"measurement": "stoichiometry N (NrdF2 per NrdI)", "result": 2}]}
